Reference: ChEMBL document CHEMBL2074203, “Multidrug resistance protein MRP1 protects against the toxicity of the major lipid peroxidation product 4-hydroxynonenal” (Biochem J, 2000)

Substrate: CCCCCC1OC(O)CC1SC[C@H](NC(=O)CC[C@H](N)C(=O)O)C(=O)NCC(=O)O
Assay: TP_TRANSPORTER: uptake in membrane vesicle from MRP1-expressing High Five insect cells
Format: functional, cell membranes, BTI-TN-5B1-4

B1: Multidrug resistance-associated protein 1 (Homo sapiens) (protein)
chain: MALRGFCSADGSDPLWDWNVTWNTSNPDFTKCFQNTVLVWVPCFYLWACFPFYFLYLSRHDRGYIQMTPLNKTKTALGFLLWIVCWADLFYSFWERSRGIFLAPVFLVSPTLLGITMLLATFLIQLERRKGVQSSGIMLTFWLVALVCALAILRSKIMTALKEDAQVDLFRDITFYVYFSLLLIQLVLSCFSDRSPLFSETIHDPNPCPESSASFLSRITFWWITGLIVRGYRQPLEGSDLWSLNKEDTSEQVVPVLVKNWKKECAKTRKQPVKVVYSSKDPAQPKESSKVDANEEVEALIVKSPQKEWNPSLFKVLYKTFGPYFLMSFFFKAIHDLMMFSGPQILKLLIKFVNDTKAPDWQGYFYTVLLFVTACLQTLVLHQYFHICFVSGMRIKTAVIGAVYRKALVITNSARKSSTVGEIVNLMSVDAQRFMDLATYINMIWSAPLQVILALYLLWLNLGPSVLAGVAVMVLMVPVNAVMAMKTKTYQVAHMKSKDNRIKLMNEILNGIKVLKLYAWELAFKDKVLAIRQEELKVLKKSAYLSAVGTFTWVCTPFLVALCTFAVYVTIDENNILDAQTAFVSLALFNILRFPLNILPMVISSIVQASVSLKRLRIFLSHEELEPDSIERRPVKDGGGTNSITVRNATFTWARSDPPTLNGITFSIPEGALVAVVGQVGCGKSSLLSALLAEMDKVEGHVAIKGSVAYVPQQAWIQNDSLRENILFGCQLEEPYYRSVIQACALLPDLEILPSGDRTEIGEKGVNLSGGQKQRVSLARAVYSNADIYLFDDPLSAVDAHVGKHIFENVIGPKGMLKNKTRILVTHSMSYLPQVDVIIVMSGGKISEMGSYQELLARDGAFAEFLRTYASTEQEQDAEENGVTGVSGPGKEAKQMENGMLVTDSAGKQLQRQLSSSSSYSGDISRHHNSTAELQKAEAKKEETWKLMEADKAQTGQVKLSVYWDYMKAIGLFISFLSIFLFMCNHVSALASNYWLSLWTDDPIVNGTQEHTKVRLSVYGALGISQGIAVFGYSMAVSIGGILASRCLHVDLLHSILRSPMSFFERTPSGNLVNRFSKELDTVDSMIPEVIKMFMGSLFNVIGACIVILLATPIAAIIIPPLGLIYFFVQRFYVASSRQLKRLESVSRSPVYSHFNETLLGVSVIRAFEEQERFIHQSDLKVDENQKAYYPSIVANRWLAVRLECVGNCIVLFAALFAVISRHSLSAGLVGLSVSYSLQVTTYLNWLVRMSSEMETNIVAVERLKEYSETEKEAPWQIQETAPPSSWPQVGRVEFRNYCLRYREDLDFVLRHINVTINGGEKVGIVGRTGAGKSSLTLGLFRINESAEGEIIIDGINIAKIGLHDLRFKITIIPQDPVLFSGSLRMNLDPFSQYSDEEVWTSLELAHLKDFVSALPDKLDHECAEGGENLSVGQRQLVCLARALLRKTKILVLDEATAAVDLETDDLIQSTIRTQFEDCTVLTIAHRLNTIMDYTRVIVLDKGEIQEYGAPSDLLQQRGLFYSMAKDAGLV
  Km: 1.6 µM
